Measured values reported in patent publication US20240392271.

Tested on: dXR (PTBP1 experiment; KRAB not stated in the excerpt) (synthetic construct)
Assay: cell_activity
Details: mouse astrocytes, day 11

Sequence: CAGCGGGGAUCCGACGAGCU / CAGCGGGGATCCGACGAGCT / AGCTCGTCGGATCCCCGCTG [gRNA spacer 28.10 ; PTBP1 target 28.10]
- activity (PTBP1/total protein relative to NT) (no clear repression): 0.945

Sequence: ACAGCAUCGUCCCAGACAUA / ACAGCATCGTCCCAGACATA / TATGTCTGGGACGATGCTGT [gRNA spacer 28.16 ; PTBP1 target 28.16]
- activity (PTBP1/total protein relative to NT): 0.464
